# Measured values reported in ChEMBL document CHEMBL1143427, “Interactions of ceftobiprole with beta-lactamases from molecular classes A to D” (Antimicrob Agents Chemother, 2007).
# Experiments:
# [1] = substrate: CC(C)(O/N=C(\C(=O)N[C@@H]1C(=O)N2C(C(=O)[O-])=C(C[n+]3ccccc3)CS[C@H]12)c1csc(N)n1)C(=O)O; assay: (§1) Ratio of Kcat to Km of Escherichia coli TEM1 assessed as drug hydrolysis by spectrophotometry
# [2] = substrate: CC1(C)S[C@@H]2[C@H](NC(=O)Cc3ccccc3)C(=O)N2[C@H]1C(=O)O; assay: as §1
# [3] = substrate: Nc1nc(/C(=N/O)C(=O)N[C@@H]2C(=O)N3C(C(=O)O)=C(/C=C4\CCN([C@@H]5CCNC5)C4=O)CS[C@H]23)ns1; assay: as §1
# [4] = substrate: CC(C)(O/N=C(\C(=O)N[C@@H]1C(=O)N2C(C(=O)[O-])=C(C[n+]3ccccc3)CS[C@H]12)c1csc(N)n1)C(=O)O; assay: (§2) Activity of Escherichia coli TEM1 assessed as drug hydrolysis by spectrophotometry
# [5] = substrate: CC1(C)S[C@@H]2[C@H](NC(=O)Cc3ccccc3)C(=O)N2[C@H]1C(=O)O; assay: as §2
# [6] = substrate: Nc1nc(/C(=N/O)C(=O)N[C@@H]2C(=O)N3C(C(=O)O)=C(/C=C4\CCN([C@@H]5CCNC5)C4=O)CS[C@H]23)ns1; assay: as §2
# [7] = substrate: O=C(Cc1cccs1)N[C@@H]1C(=O)N2C(C(=O)[O-])=C(C[n+]3ccccc3)CS[C@H]12; assay: as §2
# [8] = substrate: CC(C)(O/N=C(\C(=O)N[C@@H]1C(=O)N2C(C(=O)[O-])=C(C[n+]3ccccc3)CS[C@H]12)c1csc(N)n1)C(=O)O; assay: (§3) Activity of Pseudomonas aeruginosa 4352 AmpC assessed as drug hydrolysis by spectrophotometry
# [9] = substrate: CC1(C)S[C@@H]2[C@H](NC(=O)Cc3ccccc3)C(=O)N2[C@H]1C(=O)O; assay: as §3
# [10] = substrate: CO/N=C(\C(=O)N[C@@H]1C(=O)N2C(C(=O)[O-])=C(C[N+]3(C)CCCC3)CS[C@H]12)c1csc(N)n1; assay: as §3
# [11] = substrate: Nc1nc(/C(=N/O)C(=O)N[C@@H]2C(=O)N3C(C(=O)O)=C(/C=C4\CCN([C@@H]5CCNC5)C4=O)CS[C@H]23)ns1; assay: as §3
# [12] = substrate: O=C(Cc1cccs1)N[C@@H]1C(=O)N2C(C(=O)O)=C(/C=C/c3ccc([N+](=O)[O-])cc3[N+](=O)[O-])CS[C@H]12; assay: as §3
# [13] = substrate: O=C(Cc1cccs1)N[C@@H]1C(=O)N2C(C(=O)[O-])=C(C[n+]3ccccc3)CS[C@H]12; assay: as §3
# [14] = substrate: CC(C)(O/N=C(\C(=O)N[C@@H]1C(=O)N2C(C(=O)[O-])=C(C[n+]3ccccc3)CS[C@H]12)c1csc(N)n1)C(=O)O; assay: (§4) Ratio of Kcat to Km of Pseudomonas aeruginosa 4352 AmpC assessed as drug hydrolysis by spectrophotometry
# [15] = substrate: CC1(C)S[C@@H]2[C@H](NC(=O)Cc3ccccc3)C(=O)N2[C@H]1C(=O)O; assay: as §4
# [16] = substrate: CO/N=C(\C(=O)N[C@@H]1C(=O)N2C(C(=O)[O-])=C(C[N+]3(C)CCCC3)CS[C@H]12)c1csc(N)n1; assay: as §4
# [17] = substrate: Nc1nc(/C(=N/O)C(=O)N[C@@H]2C(=O)N3C(C(=O)O)=C(/C=C4\CCN([C@@H]5CCNC5)C4=O)CS[C@H]23)ns1; assay: as §4
# [18] = substrate: O=C(Cc1cccs1)N[C@@H]1C(=O)N2C(C(=O)O)=C(/C=C/c3ccc([N+](=O)[O-])cc3[N+](=O)[O-])CS[C@H]12; assay: as §4
# [19] = substrate: O=C(Cc1cccs1)N[C@@H]1C(=O)N2C(C(=O)[O-])=C(C[n+]3ccccc3)CS[C@H]12; assay: as §4
# [20] = substrate: CC(C)(O/N=C(\C(=O)N[C@@H]1C(=O)N2C(C(=O)[O-])=C(C[n+]3ccccc3)CS[C@H]12)c1csc(N)n1)C(=O)O; assay: (§5) Activity of Pseudomonas aeruginosa 18SH AmpC assessed as drug hydrolysis by spectrophotometry
# [21] = substrate: CC1(C)S[C@@H]2[C@H](NC(=O)Cc3ccccc3)C(=O)N2[C@H]1C(=O)O; assay: as §5
# [22] = substrate: CO/N=C(\C(=O)N[C@@H]1C(=O)N2C(C(=O)[O-])=C(C[N+]3(C)CCCC3)CS[C@H]12)c1csc(N)n1; assay: as §5
# [23] = substrate: Nc1nc(/C(=N/O)C(=O)N[C@@H]2C(=O)N3C(C(=O)O)=C(/C=C4\CCN([C@@H]5CCNC5)C4=O)CS[C@H]23)ns1; assay: as §5
# [24] = substrate: O=C(Cc1cccs1)N[C@@H]1C(=O)N2C(C(=O)[O-])=C(C[n+]3ccccc3)CS[C@H]12; assay: as §5
# [25] = substrate: CC1(C)S[C@@H]2[C@H](NC(=O)Cc3ccccc3)C(=O)N2[C@H]1C(=O)O; assay: (§6) Ratio of Kcat to Km of Pseudomonas aeruginosa 18SH AmpC assessed as drug hydrolysis by spectrophotometry
# [26] = substrate: CO/N=C(\C(=O)N[C@@H]1C(=O)N2C(C(=O)[O-])=C(C[N+]3(C)CCCC3)CS[C@H]12)c1csc(N)n1; assay: as §6
# [27] = substrate: Nc1nc(/C(=N/O)C(=O)N[C@@H]2C(=O)N3C(C(=O)O)=C(/C=C4\CCN([C@@H]5CCNC5)C4=O)CS[C@H]23)ns1; assay: as §6
# [28] = substrate: O=C(Cc1cccs1)N[C@@H]1C(=O)N2C(C(=O)[O-])=C(C[n+]3ccccc3)CS[C@H]12; assay: as §6
# [29] = substrate: CC(C)(O/N=C(\C(=O)N[C@@H]1C(=O)N2C(C(=O)[O-])=C(C[n+]3ccccc3)CS[C@H]12)c1csc(N)n1)C(=O)O; assay: (§7) Activity of Pseudomonas aeruginosa MK-1184 AmpC assessed as drug hydrolysis by spectrophotometry
# [30] = substrate: CC1(C)S[C@@H]2[C@H](NC(=O)Cc3ccccc3)C(=O)N2[C@H]1C(=O)O; assay: as §7
# [31] = substrate: CO/N=C(\C(=O)N[C@@H]1C(=O)N2C(C(=O)[O-])=C(C[N+]3(C)CCCC3)CS[C@H]12)c1csc(N)n1; assay: as §7
# [32] = substrate: Nc1nc(/C(=N/O)C(=O)N[C@@H]2C(=O)N3C(C(=O)O)=C(/C=C4\CCN([C@@H]5CCNC5)C4=O)CS[C@H]23)ns1; assay: as §7
# [33] = substrate: O=C(Cc1cccs1)N[C@@H]1C(=O)N2C(C(=O)[O-])=C(C[n+]3ccccc3)CS[C@H]12; assay: as §7
# [34] = substrate: CC(C)(O/N=C(\C(=O)N[C@@H]1C(=O)N2C(C(=O)[O-])=C(C[n+]3ccccc3)CS[C@H]12)c1csc(N)n1)C(=O)O; assay: (§8) Ratio of Kcat to Km of Pseudomonas aeruginosa MK-1184 AmpC assessed as drug hydrolysis by spectrophotometry
# [35] = substrate: CC1(C)S[C@@H]2[C@H](NC(=O)Cc3ccccc3)C(=O)N2[C@H]1C(=O)O; assay: as §8
# [36] = substrate: CO/N=C(\C(=O)N[C@@H]1C(=O)N2C(C(=O)[O-])=C(C[N+]3(C)CCCC3)CS[C@H]12)c1csc(N)n1; assay: as §8
# [37] = substrate: Nc1nc(/C(=N/O)C(=O)N[C@@H]2C(=O)N3C(C(=O)O)=C(/C=C4\CCN([C@@H]5CCNC5)C4=O)CS[C@H]23)ns1; assay: as §8
# [38] = substrate: O=C(Cc1cccs1)N[C@@H]1C(=O)N2C(C(=O)[O-])=C(C[n+]3ccccc3)CS[C@H]12; assay: as §8
# [39] = substrate: CC(C)(O/N=C(\C(=O)N[C@@H]1C(=O)N2C(C(=O)[O-])=C(C[n+]3ccccc3)CS[C@H]12)c1csc(N)n1)C(=O)O; assay: (§9) Activity of Pseudomonas aeruginosa AmpC assessed as drug hydrolysis by spectrophotometry
# [40] = substrate: CC1(C)S[C@@H]2[C@H](NC(=O)Cc3ccccc3)C(=O)N2[C@H]1C(=O)O; assay: as §9
# [41] = substrate: CO/N=C(\C(=O)N[C@@H]1C(=O)N2C(C(=O)[O-])=C(C[N+]3(C)CCCC3)CS[C@H]12)c1csc(N)n1; assay: as §9
# [42] = substrate: Nc1nc(/C(=N/O)C(=O)N[C@@H]2C(=O)N3C(C(=O)O)=C(/C=C4\CCN([C@@H]5CCNC5)C4=O)CS[C@H]23)ns1; assay: as §9
# [43] = substrate: O=C(Cc1cccs1)N[C@@H]1C(=O)N2C(C(=O)[O-])=C(C[n+]3ccccc3)CS[C@H]12; assay: as §9
# [44] = substrate: CC1(C)S[C@@H]2[C@H](NC(=O)Cc3ccccc3)C(=O)N2[C@H]1C(=O)O; assay: (§10) Ratio of Kcat to Km of Pseudomonas aeruginosa AmpC assessed as drug hydrolysis by spectrophotometry
# [45] = substrate: CO/N=C(\C(=O)N[C@@H]1C(=O)N2C(C(=O)[O-])=C(C[N+]3(C)CCCC3)CS[C@H]12)c1csc(N)n1; assay: as §10
# [46] = substrate: Nc1nc(/C(=N/O)C(=O)N[C@@H]2C(=O)N3C(C(=O)O)=C(/C=C4\CCN([C@@H]5CCNC5)C4=O)CS[C@H]23)ns1; assay: as §10
# [47] = substrate: O=C(Cc1cccs1)N[C@@H]1C(=O)N2C(C(=O)[O-])=C(C[n+]3ccccc3)CS[C@H]12; assay: as §10
protein,measurement,setting,value
"Beta-lactamase TEM (Escherichia coli), P62593 (protein) MSIQHFRVALIPFFAAFCLPVFAHPETLVKVKDAEDQLGARVGYIELDLNSGKILESFRPEERFPMMSTFKVLLCGAVLSRVDAGQEQLGRRIHYSQNDLVEYSPVTEKHLTDGMTVRELCSAAITMSDNTAANLLLTTIGGPKELTAFLHNMGDHVTRLDRWEPELNEAIPNDERDTTMPAAMATTLRKLLTGELLTLASRQQLIDWMEADKVAGPLLRSALPAGWFIADKSGAGERGSRGIIAALGPDGKPSRIVVIYTTGSQATMDERNRQIAEIGASLIKHW",kcat/Km,[1],12 M⁻¹ s⁻¹
same,kcat/Km,[2],1e+08 M⁻¹ s⁻¹
same,kcat/Km,[3],29000 M⁻¹ s⁻¹
same,Km,[4],200 µM
same,kcat,[4],0.0023 s⁻¹
same,Km,[5],12 µM
same,kcat,[5],1200 s⁻¹
same,Km,[6],300 µM
same,kcat,[6],8.8 s⁻¹
same,Km,[7],560 µM
same,kcat,[7],980 s⁻¹
"Beta-lactamase (Pseudomonas aeruginosa (strain ATCC 15692 / PAO1 / 1C / PRS 101 / LMG12228)), P24735 (protein) MRDTRFPCLCGIAASTLLFATTPAIAGEAPADRLKALVDAAVQPVMKANDIPGLAVAISLKGEPHYFSYGLASKEDGRRVTPETLFEIGSVSKTFTATLAGYALTQDKMRLDDRASQHWPALQGSRFDGISLLDLATYTAGGLPLQFPDSVQKDQAQIRDYYRQWQPTYAPGSQRLYSNPSIGLFGYLAARSLGQPFERLMEQQVFPALGLEQTHLDVPEAALAQYAQGYGKDDRPLRVGPGPLDAEGYGVKTSAADLLRFVDANLHPERLDRPWAQALDATHRGYYKVGDMTQGLGWEAYDWPISLKRLQAGNSTPMALQPHRIARLPAPQALEGQRLLNKTGSTNGFGAYVAFVPGRDLGLVILANRNYPNAERVKIAYAILSGLEQQGKVPLKR",Km,[8],8 µM
same,kcat,[8],< 0.01 s⁻¹
same,Km,[9],11 µM
same,kcat,[9],37 s⁻¹
same,Km,[10],370 µM
same,kcat,[10],< 0.012 s⁻¹
same,Km,[11],55 µM
same,kcat,[11],< 0.024 s⁻¹
same,Km,[12],12 µM
same,kcat,[12],68 s⁻¹
same,Km,[13],320 µM
same,kcat,[13],100 s⁻¹
same,kcat/Km,[14],< 1300 M⁻¹ s⁻¹
same,kcat/Km,[15],3.4e+06 M⁻¹ s⁻¹
same,kcat/Km,[16],< 33 M⁻¹ s⁻¹
same,kcat/Km,[17],< 440 M⁻¹ s⁻¹
same,kcat/Km,[18],5.7e+06 M⁻¹ s⁻¹
same,kcat/Km,[19],310000 M⁻¹ s⁻¹
same,Km,[20],20 µM
same,kcat,[20],< 0.1 s⁻¹
same,Km,[21],40 µM
same,kcat,[21],45 s⁻¹
same,Km,[22],210 µM
same,kcat,[22],< 0.1 s⁻¹
same,Km,[23],280 µM
same,kcat,[23],3.6 s⁻¹
same,Km,[24],71 µM
same,kcat,[24],130 s⁻¹
same,kcat/Km,[25],1.1e+06 M⁻¹ s⁻¹
same,kcat/Km,[26],9000 M⁻¹ s⁻¹
same,kcat/Km,[27],13000 M⁻¹ s⁻¹
same,kcat/Km,[28],1.8e+06 M⁻¹ s⁻¹
same,Km,[29],12 µM
same,kcat,[29],0.69 s⁻¹
same,Km,[30],3 µM
same,kcat,[30],20 s⁻¹
same,Km,[31],38 µM
same,kcat,[31],0.33 s⁻¹
same,Km,[32],42 µM
same,kcat,[32],0.45 s⁻¹
same,Km,[33],21 µM
same,kcat,[33],22 s⁻¹
same,kcat/Km,[34],58000 M⁻¹ s⁻¹
same,kcat/Km,[35],6.7e+06 M⁻¹ s⁻¹
same,kcat/Km,[36],8600 M⁻¹ s⁻¹
same,kcat/Km,[37],11000 M⁻¹ s⁻¹
same,kcat/Km,[38],1.1e+06 M⁻¹ s⁻¹
same,kcat,[39],< 0.0095 s⁻¹
same,Km,[40],7.9 µM
same,kcat,[40],86 s⁻¹
same,Km,[41],230 µM
same,kcat,[41],3.1 s⁻¹
same,Km,[42],29 µM
same,kcat,[42],230 s⁻¹
same,Km,[43],200 µM
same,kcat,[43],16 s⁻¹
same,kcat/Km,[44],1.1e+07 M⁻¹ s⁻¹
same,kcat/Km,[45],1300 M⁻¹ s⁻¹
same,kcat/Km,[46],7.9e+06 M⁻¹ s⁻¹
same,kcat/Km,[47],80000 M⁻¹ s⁻¹
